Experimental findings from PMC4070327 (Science (New York, N.Y.), 2014) are described below.

In assay [1] the target is T1, E. coli Trigger Factor (TF), full length (E. coli, UniProt P0A850 1-432).
T1 sequence (looked up): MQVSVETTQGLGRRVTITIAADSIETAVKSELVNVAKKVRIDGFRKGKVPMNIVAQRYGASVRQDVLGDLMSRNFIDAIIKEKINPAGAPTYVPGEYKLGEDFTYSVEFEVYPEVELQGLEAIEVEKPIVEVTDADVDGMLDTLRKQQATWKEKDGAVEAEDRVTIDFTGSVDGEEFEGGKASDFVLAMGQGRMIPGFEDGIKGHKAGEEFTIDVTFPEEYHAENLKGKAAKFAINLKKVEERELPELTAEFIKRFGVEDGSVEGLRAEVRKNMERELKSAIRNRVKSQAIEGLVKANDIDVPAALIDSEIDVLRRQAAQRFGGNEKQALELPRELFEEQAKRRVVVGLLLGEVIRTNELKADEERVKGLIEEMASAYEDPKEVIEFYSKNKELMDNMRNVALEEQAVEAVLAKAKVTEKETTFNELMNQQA
Kind of assay: ITC. For orientation: ITC needs no label: the signal is the heat of the interaction.

The target of assay [2] is T1, E. coli Trigger Factor (TF), full length. Nature of the assay: NMR titration.
Assay [3] has the same target. Nature of the assay: ITC + NMR titration.

B1: PhoA^a-c (PhoA fragment with TF-binding sites a to c) (domain or fragment, E. coli, UniProt P00634 1-150, looked up)
chain: MKQSTIALALLPLLFTPVTKARTPEMPVLENRAAQGDITAPGGARRLTGDQTAALRDSLSDKPAKNIILLIGDGMGDSEITAARNYAEGAGGFFKGIDALPLTGQYTHYALNKKTGKPDYVTDSAASATAWSTGVKTYNGALGVDIHEKD
With B1, the Kd in assay [1] was ~2 µM. In addition, the “stoichiometry N” value in assay [2] was 1 TF per PhoA^a-c.

B2: PhoA site b (independent fragment) (domain or fragment)
chain: TPEMPVLENRAAQGDITAPGGARRLTGDQTAALRDSLSDKPAKNIILLIGDGMGDS
Turning to B2, in assay [3], the dissociation constant Kd was ~200 µM.

B3: PhoA^d-e (PhoA fragment with TF-binding sites d and e) (domain or fragment, E. coli)
chain: ARADVTLGGGAKTFAETATAGEWQGKTLREQAQARGYQLVSDAASLNSVTEANQQKPLLGLFADGNMPVRWLGPKATYHGNIDKPAVTCTP
For the molecule B3, the Kd in assay [1] was ~4 µM.

B4: PhoA^f-g (PhoA fragment with TF-binding sites f and g) (domain or fragment, E. coli)
chain: QIGETVDLDEAVQRALEFAKKEGNTLVIVTADHAHASQIVAPDTKAPGLTQALNTKDGAVMVMSYGNSEEDSQEHTGSQLRIAAYGPHAANVVGLTDQTDLFYTMKAALGLK
Turning to B4, the equilibrium dissociation constant (Kd) in assay [1] was ~14 µM.

The term Kd denotes a measure of binding affinity in units of concentration. As a reminder, the stoichiometry N is a count of units in the complex or per binding partner.
